Test results as given in CN115433280A (SUZHOU DIMA BIOTECHNOLOGY CO LTD, dated 2022).

T1: CD22 on Raji细胞 (UniProt P20273 20-847, limits assumed)
T1 construct: whole, on cells; also called 天然细胞表面CD22蛋白
T1 sequence (looked up): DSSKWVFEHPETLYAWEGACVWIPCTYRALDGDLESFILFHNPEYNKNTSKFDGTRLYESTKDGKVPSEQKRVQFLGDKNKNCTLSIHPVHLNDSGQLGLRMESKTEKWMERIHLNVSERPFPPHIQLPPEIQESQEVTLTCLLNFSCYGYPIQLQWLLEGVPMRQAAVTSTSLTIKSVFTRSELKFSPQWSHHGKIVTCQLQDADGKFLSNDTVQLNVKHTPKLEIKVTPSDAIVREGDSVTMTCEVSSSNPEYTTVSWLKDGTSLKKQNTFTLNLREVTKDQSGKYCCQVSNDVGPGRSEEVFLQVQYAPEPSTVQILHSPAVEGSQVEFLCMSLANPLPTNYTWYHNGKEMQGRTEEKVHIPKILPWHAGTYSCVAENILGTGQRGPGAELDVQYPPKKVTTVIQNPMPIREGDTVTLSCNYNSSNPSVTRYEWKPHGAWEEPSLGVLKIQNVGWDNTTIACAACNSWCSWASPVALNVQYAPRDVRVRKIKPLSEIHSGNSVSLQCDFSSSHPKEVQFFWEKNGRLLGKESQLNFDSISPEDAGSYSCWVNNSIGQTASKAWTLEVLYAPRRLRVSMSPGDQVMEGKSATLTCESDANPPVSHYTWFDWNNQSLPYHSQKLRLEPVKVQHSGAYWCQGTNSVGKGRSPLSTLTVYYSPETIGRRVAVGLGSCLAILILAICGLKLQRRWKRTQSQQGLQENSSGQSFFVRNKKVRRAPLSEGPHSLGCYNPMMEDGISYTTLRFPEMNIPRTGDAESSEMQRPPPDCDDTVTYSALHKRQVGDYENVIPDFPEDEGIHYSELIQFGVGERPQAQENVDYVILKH


Experiments:
CD22 FC融合标签蛋白 [1] = biological target: CD22 FC融合标签蛋白 (UniProt P20273); assay: ELISA, purified antibody at dilution 25K on coated CD22 protein (1 μg/ml)
CD22 FC融合标签蛋白 [2] = biological target: CD22 FC融合标签蛋白 (UniProt P20273); assay: ELISA, purified antibody at dilution 15625k on coated CD22 protein (1 μg/ml)
CD22 FC融合标签蛋白 [3] = biological target: CD22 FC融合标签蛋白 (UniProt P20273); assay: indirect ELISA, B cell clone supernatant on coated CD22 protein (1 μg/ml)
CD22 FC融合标签蛋白 [4] = biological target: CD22 FC融合标签蛋白 (UniProt P20273); assay: ELISA, purified antibody at dilution 3125k on coated CD22 protein (1 μg/ml)
CD22 FC融合标签蛋白 [5] = biological target: CD22 FC融合标签蛋白 (UniProt P20273); assay: ELISA, purified antibody at dilution 625K on coated CD22 protein (1 μg/ml)
CD22 on Raji细胞 = biological target: T1, CD22 on Raji细胞; assay: flow cytometry on Raji cells, antibody at several concentrations
CD22 FC融合标签蛋白 [6] = biological target: CD22 FC融合标签蛋白 (UniProt P20273); assay: ELISA, purified antibody at dilution 125K on coated CD22 protein (1 μg/ml)
CD22 FC融合标签蛋白 [7] = biological target: CD22 FC融合标签蛋白 (UniProt P20273); assay: ELISA, purified antibody at dilution 1K on coated CD22 protein (1 μg/ml)

ELISA reading (OD) at dilution 25K (CD22 FC融合标签蛋白 [1]) | ELISA reading (OD) at dilution 15625k (CD22 FC融合标签蛋白 [2]) | OD450 (CD22 FC融合标签蛋白 [3]) | ELISA reading (OD) at dilution 3125k (CD22 FC融合标签蛋白 [4]) | ELISA reading (OD) at dilution 625K (CD22 FC融合标签蛋白 [5]) | binding result (CD22 on Raji细胞) | ELISA reading (OD) at dilution 125K (CD22 FC融合标签蛋白 [6]) | ELISA reading (OD) at dilution 1K (CD22 FC融合标签蛋白 [7]) | Binder
3.37 | 0.125 | 1.86 | 0.171 | 0.405 | binds | 1.39 | – | 命名为10F9的兔重组单克隆抗体 (antibody, V domains shown, Rabbit recombinant monoclonal antibody expressed in 293 cells) VH: QSVEESGGRLVTPGTPLTLTCTVSGFSLNTDAMIWVRQAPGKGLEYIGIIGSSGSAFFASWAKGRFTISKTSTTVDLTIISPTTEDTATYFCARFTGYGGYGRGGMDPWGPGTLVTVSS VL: AQVLTQTPSSVSAAVGGTVTINCQSSESVHNNNWLSWYQQKPGQPPKLLIYKASTLASGVPSRFSGSGSGTQFTLTISGVQCDDAATYYCQATYNSGGWYVAFGGGTEVVVK
3.52 | 0.146 | 1.93 | 0.203 | 0.528 | binds | 1.92 | – | 命名为8B5的兔重组单克隆抗体 (antibody, V domains shown, Rabbit recombinant monoclonal antibody expressed in 293 cells) VH: QEQLKESGGGLVTPGGSLTLTCTVSGIDLSSYAMGWVRQAPGKGLEYIGIVTYAGSAYYASWARGRFTISKTSTTVDLKITSPTTEDTATYFCARGVDNFYTLPDAFDPWGPGTLVTVS VL: AYDMTQTPASVSAAVGGTVTINCQASQSISRFLSWYQQKPGQRPKLLIYRASTLASGVSSRFEGSGSGTQFTLTISGVECADAATYYCQQGDTYINVDNPFGGGTEVVVK
3.1 | 0.12 | 2.12 | 0.18 | 0.382 | binds | 1.33 | 3.95 | 命名为9A3的兔重组单克隆抗体 (antibody, V domains shown, Rabbit recombinant monoclonal antibody expressed in 293 cells) V domain 1: QSVEESGGRLVTPGTPLTLTCTVSGIDLSSYWMNWVRQAPGKGLEWIGIIWSDDNTYYANWAKGRFTISKTSSTTVDLTITSPTTEDTATYFCARGYVGDIWGPGTLITVS V domain 2: ALVMTQTPSSVDVAVGGTVTIRCQASQNIYSGLAWYQQKPGQPPKLLIYGASNLASGVSSRFKGSGSGTQFTLTISGVECADAATYYCQQTYTSDNVDNPFGGGTEVVVE
